{
  "source": "patent US20090186415A1",
  "about": "“METHOD FOR PRODUCTION OF CYTOCHROME P450 WITH N-TERMINAL TRUNCATED P450 REDUCTASE” (priority 2006, published 2009)",
  "molecules": {"B1": {"name": "ΔN24hRD-cmyc: human P450 reductase lacking N-terminal 24 amino acids, with C-terminal c-myc epitope tag (SEQ ID NO: 27) (protein)", "chain": "MTDMILFSLIVGLLTYWFLFRKKKEEVPEFTKIQTLTSSVRESSFVEKMKKTGRNIIVFYGSQTGTAEEFANRLSKDAHRYGMRGMSADPEEYDLADLSSLPEIDNALVVFCMATYGEGDPTDNAQDFYDWLQETDVDLSGVKFAVFGLGNKTYEHFNAMGKYVDKRLEQLGAQRIFELGLGDDDGNLEEDFITWREQFWPAVCEHFGVEATGEESSIRQYELVVHTDIDAAKVYMGEMGRLKSYENQKPPFDAKNPFLAAVTTNRKLNQGTERHLMHLELDISDSKIRYESGDHVAVYPANDSALVNQLGKILGADLDVVMSLNNLDEESNKKHPFPCPTSYRTALTYYLDITNPPRTNVLYELAQYASEPSEQELLRKMASSSGEGKELYLSWVVEARRHILAILQDCPSLRPPIDHLCELLPRLQARYYSIASSSKVHPNSVHICAVVVEYETKAGRINKGVATNWLRAKEPVGENGGRALVPMFVRKSQLRLPFKATTPVIMVGPGTGWHPFIGFIQERAWLRQQGKEVGETLLYYGCRRSDEDYLYREELAQFHRDGALTQLNVAFSREQSHKVYVQHLLKQDREHLWKLIEGGAHIYVCGDARNMARDVQNTFYDIVAELGAMEHAQAVDYIKKLMTKGRYSLDVWSSSEQKLISEEDLNGSRL", "modifications": "C-terminal c-myc tag; /note = delta-N24hRD-cmyc tag human P450 reductase"}, "B2": {"name": "ΔN24hRD: human P450 reductase variant lacking the charged N-terminal 24 amino acids (SEQ ID NO: 26) (protein)", "chain": "MTDMILFSLIVGLLTYWFLFRKKKEEVPEFTKIQTLTSSVRESSFVEKMKKTGRNIIVFYGSQTGTAEEFANRLSKDAHRYGMRGMSADPEEYDLADLSSLPEIDNALVVFCMATYGEGDPTDNAQDFYDWLQETDVDLSGVKFAVFGLGNKTYEHFNAMGKYVDKRLEQLGAQRIFELGLGDDDGNLEEDFITWREQFWPAVCEHFGVEATGEESSIRQYELVVHTDIDAAKVYMGEMGRLKSYENQKPPFDAKNPFLAAVTTNRKLNQGTERHLMHLELDISDSKIRYESGDHVAVYPANDSALVNQLGKILGADLDVVMSLNNLDEESNKKHPFPCPTSYRTALTYYLDITNPPRTNVLYELAQYASEPSEQELLRKMASSSGEGKELYLSWVVEARRHILAILQDCPSLRPPIDHLCELLPRLQARYYSIASSSKVHPNSVHICAVVVEYETKAGRINKGVATNWLRAKEPVGENGGRALVPMFVRKSQLRLPFKATTPVIMVGPGTGWHPFIGFIQERAWLRQQGKEVGETLLYYGCRRSDEDYLYREELAQFHRDGALTQLNVAFSREQSHKVYVQHLLKQDREHLWKLIEGGAHIYVCGDARNMARDVQNTFYDIVAELGAMEHAQAVDYIKKLMTKGRYSLDVWS", "modifications": "/note = delta-N24hRD human P450 reductase"}, "B3": {"name": "675 bp GAL1p: truncated 675 bp yeast GAL1 promoter (SEQ ID No. 2) (nucleic acid)", "DNA": "CTTGAATTTTCAAAAATTCTTACTTTTTTTTTGGATGGACGCAAAGAAGTTTAATAATCATATTACATGGCATTACCACCATATACATATCCATATACATATCCATATCTAATCTTACTTATATGTTGTGGAAATGTAAAGAGCCCCATTATCTTAGCCTAAAAAAACCTTCTCTTTGGAACTTTCAGTAATACGCTTAACTGCTCATTGCTATATTGAAGTACGGATTAGAAGCCGCCGAGCGGGTGACAGCCCTCCGAAGGAAGACTCTCCTCCGTGCGTCCTCGTCTTCACCGGTCGCGTTCCTGAAACGCAGATGTGCCTCGCGCCGCACTGCTCCGAACAATAAAGATTCTACAATACTAGCTTTTATGGTTATGAAGAGGAAAAATTGGCAGTAACCTGGCCCCACAAACCTTCAAATGAACGAATCAAATTAACAACCATAGGATGATAATGCGATTAGTTTTTTAGCCTTATTTCTGGGGTAATTAATCAGCGAAGCGATGATTTTTGATCTATTAACAGATATATAAATGCAAAAACTGCATAACCACTTTAACTAATACTTTCAACATTTTCGGTTTGTATTACTTCTTATTCAAATGTAATAAAAGTATCAACAAAAAATTGTTAATATACCTCTATACTTTAACGTCAAGGAGAAAAAACCCC", "modifications": "/note = Positive strand of the 675 bp GAL1 promoter"}},
  "key": {"[1]": {"tested_on": "human NADPH P450 reductase", "assay": "MTT-based cytochrome P450 reductase assay, hRD variants in yeast microsomes and cytosolic fractions", "format": "biochemical", "conditions": "for microsome bound reductase activity: microsomes; for microsome bound reductase activity / cytosolic reductase activity: LEU2 locus of W303B; for cytosolic reductase activity: soluble cytosolic fraction", "description": "Microsomes from the different yeast strains were prepared as described in Example 1.15. About 100 μg of microsomes, as measured by the Bio-Rad Bradford assay, were used and the increase in MTT reductase activity was followed over a time period of 400 seconds.\nThe different yeast strains were grown up in YPGE medium as described in Example 1.15. The cells were harvested and centrifuged to a pellet. 10% of cell pellets were re-suspended in 1 ml of buffer B (10 mM Tris-Cl pH7.5, 2 M Sorbitol, 0.1 mM EDTA pH8.0, 1 mM Pefabloc, 0.1 mM DTT) and re-suspended cells were treated with lyticase (3-5 units/O.D. of cells; 2200 units/mg; Sigma) for about an hour. The yeast cell wall was enzymatically removed using lyticase, the pellets were centrifuged and washed twice with ice cold PBS, finally re-suspended in 1 ml PBS. About 0.5 ml of glass beads were added to the suspension and the cells were vortexed three times with a 5 min interval on ice after each vortexing. The cells lysates were directly used for the MTT-based reductase assay. Equal amount of cells lysates (100 μg, as measured by the Bio-Rad Bradford assay) were used and the increase in MTT reductase activity was followed, as above, over a time period of 400 seconds.\nThe enzyme NADPH-cytochrome P450 reductase mediates the transfer of electrons from NADPH to cytochrome P450, other microsomal proteins and cytochrome c. It also catalyzes the reduction of many drugs and other compounds such as potassium ferricyanide, 2,6-dichloroindopheonl, 1,1-diphenyl-2-picrylhydrazyl (DPPH), and mitomycin c. Tetrazolium salts are used extensively in cell proliferation and cytotoxicity assays, enzyme assays, histochemical procedures and bacteriological screening. […] The compound 3-(4,5-dimethylthiazol-2-yl)-2,5-diphenyltetrazolium bromide (MTT) is a monotetrazolium salt. The reduction of MTT is one of the most frequently used methods for measuring cell proliferation and cytotoxiciy. Reduction of MTT by P450 reductase has been assessed as a method for monitoring yeast produced recombinant P450 reductase activity and the protocol was developed on the procedure published by Yim S-K, et al (Yim S-K., Y. C.-H. Ahn T., Hung H—C and Pan J-G. A continuous Spectrophotometric assay for NADPH-cytochrome P450 reductase activity using 3-(4,5 Dimethylthiazol-2-yl)-2,5-diphenyltetrazolium Bromide. Journal of Biology and Molecular Biology 38: 366-369, 2005). The principal advantage of this substance is that the reduction of MTT can be assayed directly in the reaction medium by a continuous spectrophotometirc method. The electrons released from NADPH by P450 reductase are transferred to MTT, and then the amounts of reduced MTT is assessed spectrophotometrically by measuring the increase in A610 values that is due to the formation of blue formazan. The extinction coefficient of MTT is 11.3 mM^−1 cm^−1. This method offers the advantages of short analysis time with the use of a relatively cheap commercial substrate. The classical assay uses recombinant cytochrome c as a substrate.\nDisposable cuvettes were used for this experiment. 850 μl of potassium phosphate buffer was added to a cuvette. […] The cuvette was quickly placed into the spectrophotometer together with the blank cuvette and its contents (that contained all components as in the other test cuvette but not the microsomes or cell supernatant) and the increase in the values at 610 nm was measured for a time period of 400 seconds. […]"}, "human CYP1B1": {"target": "T1, human CYP1B1 (Homo sapiens, UniProt Q16678)", "T1 construct": "made in house; host or cells: Saccharomyces cerevisiae JL20 / W303B and derived strains; microsomes", "T1 sequence (Q16678 with tags, fused parts or gaps)": "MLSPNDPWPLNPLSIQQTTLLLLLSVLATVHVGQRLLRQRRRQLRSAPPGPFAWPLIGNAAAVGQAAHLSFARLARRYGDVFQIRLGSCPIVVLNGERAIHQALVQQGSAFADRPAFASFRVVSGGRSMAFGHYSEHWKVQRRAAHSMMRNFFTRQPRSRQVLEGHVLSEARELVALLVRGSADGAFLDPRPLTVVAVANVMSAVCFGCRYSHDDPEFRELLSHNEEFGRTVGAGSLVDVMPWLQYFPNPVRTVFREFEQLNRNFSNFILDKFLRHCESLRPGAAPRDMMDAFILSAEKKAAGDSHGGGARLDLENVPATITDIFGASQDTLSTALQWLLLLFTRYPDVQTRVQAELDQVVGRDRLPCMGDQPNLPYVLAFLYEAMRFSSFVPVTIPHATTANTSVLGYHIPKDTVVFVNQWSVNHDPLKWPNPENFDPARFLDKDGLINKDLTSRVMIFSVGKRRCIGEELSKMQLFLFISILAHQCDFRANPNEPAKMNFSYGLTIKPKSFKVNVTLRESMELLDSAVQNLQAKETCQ", "assay": "Determination of P450 amounts via CO-difference spectra (CYP1B1 in yeast microsomes)", "conditions": "strains JL20 and W303B with only endogenous yeast P450 reductase, average of 3 observations", "description": "Determination of P450 amounts via CO-difference spectra: Difference spectra of microsomal preparations were measured in a spectrophotometer (Lambda 16, Perkin Elmer) using plastic disposable cuvettes. 850 μl of a solution containing 100 mM potassium phosphate and 20% glycerol (pH7.5) was added to the cuvette, and left for one minute. Then a ‘few grains’ of sodium hydrosulfite was added, mixed gently to prevent any bubble forming in the cuvette and left for another minute. 150 μl of mirosomes were added into the cuvette and the whole suspension was mixed gently. Two cuvettes (one containing sodium hydrosulphite without microsome and the other with microsome) were prepared and a baseline of light absorption of the buffer and microsome mixture was recorded in the dual-beam spectrophotometer from 400 nm to 500 nm. Carbon monoxide was bubbled slowly into one sample cuvette for about one minute, 1 bubble/second. Light absorption was recorded again from 400 nm to 500 nm. The concentration of cytochrome P450 in the cuvette was calculated from the absorption change at 450 nm relative to the absorbance change at 490 nm, using the formula below: […]"}},
  "data": [
    {"molecule": "B1", "values": [
      {"measurement": "P450 reductase activity (MTT reduction)", "setting": "[1]; microsomal and soluble (cytosolic) fractions, hRD variants in W303B", "value": "much more potent in reductase activity than ΔN24hRD"},
      {"measurement": "microsome bound reductase activity", "setting": "[1]", "value": "superior in its reductase activity than the wild type full-length protein"},
      {"measurement": "cytosolic reductase activity", "setting": "[1]", "value": "also higher"}
    ]},
    {"molecule": "B2", "values": [
      {"measurement": "microsome bound reductase activity", "setting": "[1]", "value": "minimal"},
      {"measurement": "cytosolic reductase activity", "setting": "[1]", "value": "most of the activity of ΔN24hRD exists in the soluble cytosolic part of the cell"}
    ]},
    {"molecule": "B3", "values": [
      {"measurement": "Expression of CYP1B1 (amounts of P450 produced) from GAL promoter variants", "setting": "human CYP1B1", "value": "the best"},
      {"measurement": "Expression of CYP1B1 (amounts of P450 produced) from GAL promoter variants", "setting": "human CYP1B1; listed as 675 bp GAL1 promoter", "value": "the best expression"}
    ]}
  ]
}
